Assay results as given in patent US20140154243A1 (Amgen, published 2014).
Changes are numbered by the printed parent chain.

B1: antibody 1.29.1 (antibody, human IgG2, kappa, V domains shown)
VH: QVQLVESGGGVVQPGRSLRLSCAASGFTFSSYGMHWVRQAPGKGLEWVAVIWYDGSDKYYADSVKGRFTISRDNSKNTLYLQMNSLRAEDTAVYYCAREDYGEGFDYWGQGTLVTVSS
VL: not shown
notes: also called antibody to HGF ultimately derived from hybridoma 1.29.1
B2: antibody 3.10.1 (antibody, human IgG1, kappa, V domains shown)
VH: QVQLQQWGAGLLKPSETLSLTCAVYGGSFSTYYWSWIRQPPGKGLEWIGEINHSGSTNYNPSLKSRVTISVDTSKNQFSLKLSSVTAADTAVYYCARGGYDFWSGYYDYWGQGTLVTVSS
VL: not shown
notes: also called antibody to HGF ultimately derived from hybridoma 3.10.1
B3: antibody 1.74.3 (antibody, human IgG2, kappa, V domains shown)
VH: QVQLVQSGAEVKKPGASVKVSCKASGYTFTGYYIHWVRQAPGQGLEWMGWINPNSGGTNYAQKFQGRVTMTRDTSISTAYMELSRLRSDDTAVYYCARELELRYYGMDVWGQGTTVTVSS
VL: DIQMTQSPSSLSASVGDRVTITCRASQSINSDLNWYQQKPGKVPKLLIYVASSLQNGVPSRFSGSGSGTDFTLTISSLQPEDFATYYCQRSYSTPPTFGPGTKVDIKR
notes: also called 1.74.1; 1.74.2
B4: antibody 1.75.1 (antibody, human IgG2, kappa, V domains shown)
VH: QVQLQESGPGLVKPSQTLSLTCTVSGGSISSGGYYWSWIRQHPGKGLEWIGYIYYSGSTYYNPSLKSRVTISVDTSKNQFSLKVSSVTAADTAVYYCARDPLWFGEFDYYGMDVWGQGTTVTVSS
VL: DIQMTQSPSSLSASVGDRVTITCRASQGIRNDLGWFQQKPGKAPKRLIYAASSLQSGVPSRFSGSGSGTEFTLTISSLQPEDFATYYCLQHDSYPLTFGGGTKVEIKR
notes: also called antibody to HGF ultimately derived from hybridoma 1.75.1
B5: antibody 1.24.1 (antibody, human IgG2, kappa, V domains shown)
VH: QVQLVESGGGLVKPGGSLRLSCAASGFTFSDYYMSWIRQAPGKGLEWVSYISSSGSTIYYADSVKGRFTISRDNAKNSLYLQMNSLRAEDTAVYYCARDEYNSGWYVLFDYWGQGTLVTVSS
VL: DIQMTQSPSSVSASVGDRVTITCRASQGISSWLAWYQQKPGKAPNLLIYEASSLQSGVPSRFGGSGSGTDFTLTISSLQPEDFATYYCQQANGFPWTFGQGTKVEIKR
notes: also called antibody to HGF ultimately derived from hybridoma 1.24.1
B6: antibody 1.61.3 (antibody, human IgG2, kappa, V domains shown)
VH: QVQLQESGPGLVKPSQTLSLTCTVSGGSISSDGYYWSWIRQHPGKGLEWIGYIYYSGSTYYNPSLKSRVTISVDTSKNQFSLKLSSVTAADTAVYYCARSHLHYYDSSGYYYGGAFDIWGQGTMVTVSS
VL: DIQMTQSPSSLSASVGDRVTITCQASQDISNYLNWYQQKPGTAPKLLIYGASDLETGVPSRFSGSGSGTDFTFAISSLQPEDIATYYCQQYDNLPYNFGQGTKLEIKR
notes: also called antibody to HGF ultimately derived from hybridoma 1.61.3
B7: antibody 1.60.1 (antibody, human IgG2, kappa, V domains shown)
VH: QVQLVQSGAEVKKPGASVKVSCKASGYTFTGYYINWVRQAPGQGLEWMGWINPNSGGTNYAQKFQGRVTMTRDTSITTAYMELSRLRADDTAVYYCARELELRYYGMDVWGQGTTVTVSS
VL: DIQMTQSPSSLSVSVGDRVTITCRASQGISSYLAWYQQKPGKVPKLLIYVASTLQSGVPSRFSGSGSGTDFTLTISSLQPEDVATYYCQNYNSDPLTFGGGTKVEIKR
notes: also called antibody to HGF ultimately derived from hybridoma 1.60.1
B8: antibody 2.40.1 (antibody, human IgG2, kappa, V domains shown)
VH: QVQLQESGPGLVKPSQTLSLTCTVSGGSISSGGYYWSWIRQHPGKGLEWIGNIYYSGITYYNPSLKSRVTMSVDTSKNQFSLKLSSVTAADTAVYYCARDPLYGDYGFDPWGQGTLVTVSS
VL: B4 VL with F36Y, A50V, D92N
notes: also called antibody to HGF ultimately derived from hybridoma 2.40.1

The binders below were run against T1, human hepatocyte growth factor (HGF) (human, UniProt P14210 32-728) (assay: BIAcore 3000, kinetic method: antibody captured on immobilized Protein G, human HGF (0-100 nM) injected).
T1 construct: Recombinant protein; The mature protein is a heterodimer of the alpha and beta subunits; also called human HGF; full length HGF
T1 sequence (P14210 32-728 limits assumed): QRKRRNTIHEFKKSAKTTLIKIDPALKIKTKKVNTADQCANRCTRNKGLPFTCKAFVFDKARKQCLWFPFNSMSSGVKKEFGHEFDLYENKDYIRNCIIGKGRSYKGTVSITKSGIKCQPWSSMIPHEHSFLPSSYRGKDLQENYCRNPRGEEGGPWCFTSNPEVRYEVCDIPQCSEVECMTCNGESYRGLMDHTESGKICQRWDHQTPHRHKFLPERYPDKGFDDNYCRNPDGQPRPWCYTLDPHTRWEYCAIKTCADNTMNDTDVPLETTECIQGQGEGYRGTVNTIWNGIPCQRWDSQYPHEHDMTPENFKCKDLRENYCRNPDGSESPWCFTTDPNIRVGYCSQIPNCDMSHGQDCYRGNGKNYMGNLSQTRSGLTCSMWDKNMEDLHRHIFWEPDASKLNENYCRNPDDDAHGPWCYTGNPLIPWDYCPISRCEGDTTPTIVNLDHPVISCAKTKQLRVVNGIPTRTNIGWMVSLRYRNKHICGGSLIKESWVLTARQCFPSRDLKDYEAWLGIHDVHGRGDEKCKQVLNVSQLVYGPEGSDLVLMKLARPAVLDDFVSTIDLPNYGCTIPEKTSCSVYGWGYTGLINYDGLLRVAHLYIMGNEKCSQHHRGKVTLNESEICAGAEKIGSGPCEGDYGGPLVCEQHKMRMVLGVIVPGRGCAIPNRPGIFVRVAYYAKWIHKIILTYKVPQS
Description: The running buffer for those analyses was PBS with 0.005% P20 surfactant (BIAcore, Inc. Piscataway, N.J.). Recombinant Protein G (Pierce, Rockford, Ill.) was immobilized to a research grade CM5 sensor chip (Biacore, Inc. Piscataway, N.J.) via primary amine groups using the Amine Coupling Kit (Biacore, Inc. Piscataway, N.J.), according to the manufacturer's instructions.
In six separate samples, about 200 resonance units (RU) of each of the six antibodies to HGF was separately attached to immobilized Protein G following the manufacturer's instructions. Samples comprising various concentrations (0-100 nM) of human HGF were injected over the bound antibody surface at a flow rate of 50 μl/min for 3 minutes. Antibody binding kinetic parameters including kₐ (association rate constant), kd (dissociation rate constant), and KD (dissociation equilibrium constant) were determined using the BIA evaluation 3.1 computer program (BIAcore, Inc. Piscataway, N.J.). Lower dissociation equilibrium constants indicate greater affinity of the antibody for HGF.

Row | Kd | koff | kon | Binder
1 | ~0.79 nM | 4.8e-05 s⁻¹ | 62000 M⁻¹ s⁻¹ | B1
2 | ~0.47 nM | 3e-05 s⁻¹ | 65000 M⁻¹ s⁻¹ | B2
3 | ~0.36 nM | 4.7e-05 s⁻¹ | 130000 M⁻¹ s⁻¹ | B3
4 | ~0.78 nM | 2.8e-05 s⁻¹ | 36000 M⁻¹ s⁻¹ | B4

What follows are binders tested against T1, human hepatocyte growth factor (HGF) (assay: BIAcore 3000, equilibrium/solution method: antibody (0.01-50 nM) incubated with human HGF (0.05 nM and 1 nM), free HGF measured on a chip carrying the same antibody).
Method: That method was performed with a BIAcore®3000 (Biacore, Inc., Piscataway, N.J.) using PBS with 0.005% P20 surfactant (BIAcore, Inc. Piscataway, N.J.) as running buffer. The four antibodies to HGF were separately immobilized to research grade CM5 sensor chips (Biacore, Inc. Piscataway, N.J.) via primary amine groups using an Amine Coupling Kit (Biacore, Inc. Piscataway, N.J.) following the manufacturer's instructions.
In separate assays, each of the four antibodies to HGF, over a range of concentrations (from 0.01 nM to 50 nM) was separately incubated with each of two different concentrations (0.05 nM and 1 nM) of human HGF in PBS with 0.005% P-20 and 0.1 mg/mL BSA at room temperature for at least six hours. Each of those samples was then injected over a surface of a CM5 sensor chip onto which the same antibody to HGF had been immobilized. The binding signal obtained was proportional to the free HGF in solution. The dissociation equilibrium constant (KD) was obtained from nonlinear regression analysis of the competition curves using a dual-curve one-site homogeneous binding model (KinExA software, Sapidyne Instruments Inc., Boise Id.).

Row | Kd | Binder
5 | 0.034 nM | B1
6 | 0.041 nM | B3

Each binder was assayed against T2, mouse HGF (mouse, UniProt Q08048 33-728) (assay: Western blot, non-reducing and reducing SDS-PAGE).
T2 construct: also called recombinant mouse HGF; mHGF
T2 sequence (Q08048 33-728 limits assumed): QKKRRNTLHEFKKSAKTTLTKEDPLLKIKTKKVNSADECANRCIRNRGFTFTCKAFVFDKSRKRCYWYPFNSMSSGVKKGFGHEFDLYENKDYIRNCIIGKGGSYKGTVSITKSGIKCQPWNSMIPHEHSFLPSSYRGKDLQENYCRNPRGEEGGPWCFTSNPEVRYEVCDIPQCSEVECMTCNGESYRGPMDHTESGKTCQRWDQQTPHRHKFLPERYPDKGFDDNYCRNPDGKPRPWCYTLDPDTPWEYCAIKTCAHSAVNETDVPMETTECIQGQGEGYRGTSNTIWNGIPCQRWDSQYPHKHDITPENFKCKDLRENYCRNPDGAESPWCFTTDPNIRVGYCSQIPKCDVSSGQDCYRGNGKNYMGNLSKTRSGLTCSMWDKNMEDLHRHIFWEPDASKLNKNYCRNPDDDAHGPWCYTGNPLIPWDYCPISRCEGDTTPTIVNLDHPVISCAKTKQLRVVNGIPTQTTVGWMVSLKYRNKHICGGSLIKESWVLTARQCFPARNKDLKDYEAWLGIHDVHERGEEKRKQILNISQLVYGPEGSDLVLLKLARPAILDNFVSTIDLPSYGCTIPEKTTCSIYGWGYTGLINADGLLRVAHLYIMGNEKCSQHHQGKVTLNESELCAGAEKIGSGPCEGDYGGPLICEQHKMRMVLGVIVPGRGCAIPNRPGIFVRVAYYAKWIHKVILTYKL
Method: Human HGF and mouse HGF were run on separate lanes of SDS PAGE gels. Human HGF and mouse HGF were each separately run at 100 ng/lane and at 10 ng/lane. Some gels were run under non-reducing conditions and other separate gels were run under reducing conditions using beta-mercaptoethanol. The human HGF and mouse HGF in the SDS PAGE gels were transferred to nitrocellulose membranes. Those membranes were separately incubated with one of the ten antibodies to HGF described in Example 6. Each of the ten antibodies to HGF was separately incubated with nitrocellulose membranes from gels containing human HGF and mouse HGF under reducing and with nitrocellulose membranes from gels containing human HGF and mouse HGF under non-reducing conditions. The membranes were then incubated with a goat anti-human IgG antibody linked to HRP (Pierce, Rockford, Ill., Cat. #31412). Signal from that goat anti-human IgG antibody linked to HRP was detected by […] (ECL™; Amersham Pharmacia Biotech, Piscataway, N.J., Cat. # RPN₂₁₀₆) following the manufacturer's instructions.

Row | Binder | binding result
7 | B5 | no binding (tested: 100 ng and 10 ng per lane)
8 | B6 | no binding (tested: 100 ng and 10 ng per lane)
9 | B1 | no binding (tested: 100 ng and 10 ng per lane)
10 | B7 | no binding (tested: 100 ng and 10 ng per lane)
11 | B4 | no binding (tested: 100 ng and 10 ng per lane)
12 | B8 | no binding (tested: 100 ng and 10 ng per lane)

Each binder was assayed against T1, human hepatocyte growth factor (HGF) (assay: neutralization ELISA (left table): inhibition of the binding of soluble Met (2 nM) to plate-coated HGF, detected with biotinylated anti-cMetR antibody and Eu-streptavidin; column head 'IC50 IP (nM)').
Method: (§1) A neutralization ELISA assay was developed to assess whether the antibodies discussed in Example 6 could interrupt Met-HGF binding. Delphia 96-well plates (Cat#: AAAND-0001, Wallac Inc., Gaithersburg, Md.) were coated with HGF by adding 100 μl of HGF at 6.25 μg/ml per well. The plates were incubated at 37° C. for 1 hour or at 4° C. overnight. The plates were then blocked with 5% BSA (Cat#50-61-00, KPL, Gaithersburg, Md.) in PBS containing 0.1% Tween 20 for 1 hour at room temperature with shaking.
(§2) Test samples were prepared by separately mixing soluble Met (2 nM, 0.256 μg/ml) with different concentrations of a particular antibody to HGF being tested. The concentrations tested were: 667 nM, 223 nM, 74.1 nM, 24.7 nM, 8.2 nM, 2.7 nM, 0.91 nM, 0.30 nM, 0.10 nM, and 0.034 nM. A volume of 100 μl of a test sample was added to each well of the plates. The plates were then incubated at 4° C. overnight and then washed 4 times with PBS containing 0.1% Tween 20. Next, 100 μl per well of Biotinylated anti-cMetR antibody (Cat#: BAF358, R&D Systems Inc., Minneapolis, Minn.) at 2 μg/ml, was added. […] The plates were then incubated for 2 hours with shaking, and were washed 4 times with PBS containing 0.1% Tween 20. Eu-streptavidin (1:1000 dilution in Assay buffer) (Cat#1244-360, Wallac Inc., Gaithersburg, Md.) was added and the plates were shaken at room temperature for 1 hour. The plates were then washed 4 times with PBS containing 0.1% Tween 20. Next, 100 μl of enhancement buffer (Wallac Inc., Cat#: 1244-105, Gaithersburg, Md.) was added. After at least for 5 minutes, the plates were read using Europium method on Victor 2 (1420 Multilabel Counter, Wallac Inc., Gaithersburg, Md.).
(§3) Percent inhibition of Met binding to HGF (i.e. neutralization) was calculated and IC₅₀ values were determined using the 4 parameter fit equation Excelfit, Version 2.0.6, (Microsoft Inc, Seattle, Wash.). In the presence of the antibodies to HGF discussed in Examples 6, Met binding to HGF was neutralized.

Row | IC50 | Binder
13 | 2.6 nM | B5
14 | 3.2 nM | B1
15 | 0.9 nM | B2
16 | 3.7 nM | B3
17 | 1 nM | B4
18 | 1 nM | B8

The binders below were run against T1, human hepatocyte growth factor (HGF) (assay: neutralization ELISA (right table): inhibition of the binding of soluble Met (2 nM) to plate-coated HGF, detected with biotinylated anti-cMetR antibody and Eu-streptavidin; column head 'IC50 IP (nM)').
Method: as §1, §2, §3

Row | IC50 | Binder
19 | 9.36 nM | B5
20 | 2.59 nM | B6
21 | 1.93 nM | B1
22 | 0.37 nM | B2
23 | 2.31 nM | B3
24 | 0.72 nM | B4

These binders were tested against T1, human hepatocyte growth factor (HGF) (assay: cell-based or functional assay).

Row | Binder | IC50, inhibition of growth/survival of U-87 MG cells
25 | B5 | < 100 nM
26 | B6 | < 100 nM
27 | B1 | < 100 nM
28 | B2 | < 100 nM
29 | B3 | < 100 nM
30 | B7 | < 100 nM
31 | B4 | < 100 nM
32 | B8 | < 100 nM

The binders below were run against T2, mouse HGF (assay: FACS bead assay: antibody incubated with the avidin fusion of mouse HGF, captured on biotin-coated beads; FITC anti-avidin (x) against PE goat anti-human F(ab')2 (y)).
Method: After incubation, the fusion proteins in each sample were separately captured using biotin-coated beads (Spherotech Inc., Libertyville, Ill., Cat # TP-60-5). The resulting bead-protein complexes were labeled by adding FITC labeled anti-avidin antibody (Vector Lab, Burlingame, Calif., Cat. # SP-2040). The presence of antibodies to HGF was determined by adding phycoerythrin (PE) labeled goat anti-human F(ab′)2 antibody (Southern Biotech Associates, Inc, Birmingham, Ala., Cat #2043-09).
Those samples were then subjected to Fluorescence Activated Cell Sorter (FACS) analysis. Bead complexes labeled by FITC (which indicated the presence of avidin) and/or PE (which indicated the presence of antibody to HGF) were detected on a Becton Dickinson Bioscience FACScan (BD, Franklin Lakes, N.J.).

Row | binding result | Binder
33 | no binding | B2
34 | no binding | B3
